Tested on: CCCC(=O)Oc1ccc([N+](=O)[O-])cc1
Assay: purified protein
Settings: 8 nM enzyme, 0.05-1 mM substrate, n-octyl beta-D-glucoside

Q: Which Km does the source give for PA2949 (Pseudomonas aeruginosa PAO1) here?
A: The Km was 170 ± 10 µM.

Q: And the kcat?
A: Its kcat is 520.4 ± 31.7 s⁻¹.
